The target in this assay is T1, hRpn13 Pru (1-150) (human, UniProt Q16186 1-150).
T1 construct: hRpn13 (proteasome subunit, gene ADRM1), Pru domain, residues 1-150; printed MW 17017.3 g/mol; also called hRpn13 Pru domain
Nature of the assay: 19F NMR of the competing small molecule XL44; 25 or 50 uM hRpn2 (940-953) added to preincubated 50 uM XL44 and equimolar hRpn13 Pru; NMR buffer (20 mM sodium phosphate, 50 mM NaCl, 2 mM DTT, 10% DMSO-d6, pH 6.5), 10 °C. As to conditions: both partners purified.

T1 sequence (Q16186 1-150): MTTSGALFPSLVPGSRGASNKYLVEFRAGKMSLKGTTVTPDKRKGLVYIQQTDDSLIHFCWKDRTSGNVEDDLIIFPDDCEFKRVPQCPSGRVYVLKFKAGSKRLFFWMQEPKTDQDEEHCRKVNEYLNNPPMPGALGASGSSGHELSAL

B1: hRpn2 (940-953) (peptide, UniProt Q99460 940-953, looked up)
chain: QEPEPPEPFEYIDD
notes: hRpn2 (proteasome regulatory particle subunit), extreme C-terminus, residues 940-953; also called hRpn2 peptide; not shown: GST, N-terminal, cleaved
Turning to B1, the binding result is “binds”.
